Experimental findings from US20210206850A1 (ACCURUS BIOSCIENCES, published 2021) are described below.

As a reminder, the IC50 is the concentration that inhibits the measured activity by half. Low readings indicate greater potency, high ones weaker potency. As a reminder, the koff is a measure of how fast the partners let go of each other. A higher koff goes with a short-lived complex. Broadly, the kon is the second-order rate constant of association. By EC50 (read off the curve) is commonly meant the concentration giving half of the maximal effect. High values mean a less potent agent, low ones a more potent agent.

Experiment [1] has as its target T1, His tagged mouse CD47 protein (mouse, UniProt Q61735 19-140, limits assumed).
T1 construct: Bought protein
T1 sequence (looked up): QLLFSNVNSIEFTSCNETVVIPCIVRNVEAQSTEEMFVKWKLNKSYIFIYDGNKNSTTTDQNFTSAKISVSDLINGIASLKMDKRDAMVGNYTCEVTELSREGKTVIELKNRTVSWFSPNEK
Put plainly: ELISA, plate coated with His tagged mouse CD47 at 2 ug/ml, goat anti-mouse IgG-HRP, OD450. On the procedure:
To evaluate the binding cross-reactivity of anti-human CD47 antibodies to cynomolgus and mouse CD47, an ELISA based binding assay was used. Briefly, microtiter plates were coated with His tagged cynomolgus monkey CD47 or His tagged mouse CD47 protein (purchase from Acro Biosystem). Both proteins were coated at 2 μg/ml in PBS, 100 μl/well at 4° C. overnight. The plates were then blocked with 100 μl/well of 2% BSA. Ten-fold dilutions of mouse anti-human CD47 hybridoma antibodies were added to each well starting at 70 ug/ml and incubated for 1-2 hours at RT. The plates were washed with PBS/Tween and then incubate with goat-anti-mouse IgG antibody conjugated with Horse Radish Peroxidase (HRP) for 1 hour at RT. After washing, the plates were developed with TMB substrate and analyzed by spectrophotometer at OD 450 nm.

Experiment [2] has as its target T2, human CD47ECD His tagged protein (human, UniProt Q08722 19-139, limits assumed).
T2 construct: extracellular domain; also called HuCD47ECD 8xHis; monovalent CD47ECD His tagged protein
Put plainly: ELISA ligand blocking, plate coated with human CD47 ECD His tagged protein at 1 ug/ml; blocked ligand human SIRPaECD huFc at 1 ug/ml, anti-human IgG-HRP. The method, then:
(§1) To evaluate the blocking ability of anti-human CD47 mouse mAb on recombinant human CD47 binding to its ligand SIRPα, an ELISA based ligand blocking assay was employed. Briefly, microtiter plates were coated with human CD47ECD His tagged protein at 1 μg/ml in PBS, 100 μl well at 4° C. overnight, then blocked with 100 μl/well of 2% BSA. […] The plates were washed with PBS/Tween and then incubated with anti-human IgG-HRP for 1 hour at 37° C. After washing, the plates were developed with TMB substrate and analyzed by spectrophotometer at OD 450 nm.
(ELISA stands for enzyme-linked immunosorbent assay.)

The target of experiment [3] is T3, human CD47ECD mouse Fc protein (human, UniProt Q08722 19-139, limits assumed).
T3 construct: extracellular domain; also called HuCD47ECD muFc; bivalent CD47ECD muFc protein; not shown: mouse Fc
T3 sequence (Q08722 19-139 limits assumed): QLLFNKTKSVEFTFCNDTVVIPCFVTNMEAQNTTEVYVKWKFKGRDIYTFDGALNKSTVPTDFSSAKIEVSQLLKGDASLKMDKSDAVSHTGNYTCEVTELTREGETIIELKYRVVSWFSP
The experiment in a line: SPR (Biacore 3000); antibody captured on anti-human Fc chip, bivalent HuCD47ECD muFc injected; column Affinity (nM). The method, then:
(§2) The binding affinities of anti-human CD47 mouse/human chimeric antibodies to human CD47 protein were determined with BIACORE™ using a capture method. The anti-human CD47 mouse/human chimeric antibodies were captured using anti-human Fc antibody coated on a CMS chip. Serial dilutions of human CD47ECD mouse Fc protein starting from 400 nM were injected over captured antibody for 1 mins at a flow rate of […]. Alternatively, serial dilutions of human CD47ECD His tagged protein starting from 800 nM were injected over captured antibody for 1 min at a flow rate of […]. The antigens were allowed to dissociate for 900s. All the experiments were carried out on a Biacore 3000. Data analysis was carried out using Biacore 3000 evaluation software.
Background: In SPR one partner is held on a chip, and binding of the other changes the refractive index at the surface.

For experiment [4], the target named is human CD47 (full length) expressed on cells (human) (UniProt Q08722). Put plainly: FACS ligand blocking on CD47-CHO cells; blocked ligand FITC human SIRPa huFc at 4 ug/ml.
human CD47 (full length) expressed on cells (human), sequence (Q08722 19-323): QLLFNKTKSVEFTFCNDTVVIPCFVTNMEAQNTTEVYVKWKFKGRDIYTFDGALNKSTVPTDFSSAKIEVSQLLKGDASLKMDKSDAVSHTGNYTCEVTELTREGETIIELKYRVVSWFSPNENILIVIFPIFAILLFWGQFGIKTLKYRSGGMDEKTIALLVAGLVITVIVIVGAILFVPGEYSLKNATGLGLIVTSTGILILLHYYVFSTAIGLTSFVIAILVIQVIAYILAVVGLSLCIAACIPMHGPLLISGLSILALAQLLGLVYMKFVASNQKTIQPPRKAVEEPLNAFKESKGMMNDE
The target in experiment [5] is T3, human CD47ECD mouse Fc protein. Put plainly: SPR (Biacore 3000); antibody captured on anti-human Fc chip, bivalent HuCD47ECD muFc injected. On the procedure:
as §2

The target in experiment [6] is T2, human CD47ECD His tagged protein. The experiment in a line: SPR (Biacore 3000); antibody captured on anti-human Fc chip, monovalent HuCD47ECD 8xHis injected. On the procedure:
as §2

Experiment [7] shares this target. The experiment in a line: SPR (Biacore 3000); antibody captured on anti-human Fc chip, monovalent HuCD47ECD 8xHis injected; column Affinity (nM). The method, then:
as §2

Experiment [8] has the same target. The experiment in a line: ELISA competition; plate-bound human CD47ECD His, competitor ligand SIRPα huFc 1 ug/ml. The method, then:
as §1

The target of experiment [9] is T4, human CD47ECD human Fc protein (human, UniProt Q08722 19-139, limits assumed).
T4 construct: extracellular domain; also called human CD47ECD huFc; human CD47huFc; not shown: human Fc
T4 sequence (Q08722 19-139 limits assumed): as the sequence (Q08722 19-139 limits assumed) above
Put plainly: ELISA, plate coated with human CD47ECD huFc at 1 ug/ml, goat anti-mouse IgG-HRP, OD450. An excerpt:
After washing, the plates were developed with TMB substrate and analyzed by spectrophotometer at OD 450 nm.

Experiment [10] concerns the target T2, human CD47ECD His tagged protein. Put plainly: ELISA ligand blocking, plate coated with human CD47 ECD His tagged protein at 1 ug/ml; blocked ligand human SIRPaECD muFc at 1 ug/ml, anti-mouse IgG-HRP. The method, then:
Briefly, microtiter plates were coated with human CD47ECD His tagged protein at 1 μg/ml in PBS, 100 μl well at 4° C. overnight, then blocked with 100 μl/well of 2% BSA. […] The plates were washed with PBS/Tween and then incubated with anti-mouse IgG-HRP for 1 hour at 37° C. After washing, the plates were developed with TMB substrate and analyzed by spectrophotometer at OD 450 nm.

Experiment [11] has as its target T5, human CD47 (full length) expressed on cells (human, UniProt Q08722 19-323).
T5 construct: whole, on cells; also called human CD47/CHO cells; CHO/CD47 cells
The experiment in a line: FACS ligand blocking on CD47-CHO cells; blocked ligand FITC human SIRPa huFc at 4 ug/ml. The method, then: To evaluate the blocking effect of anti-human CD47 mouse/human chimeric antibodies to human full length CD47 expressed on CHO cells, the FACS-based ligand blocking assay was used. CD47-CHO cells were first incubated with 3 fold serially diluted mouse/human chimeric mAbs starting at 100 μg/ml on ice for 30 min. […] The cells were then washed 3 times with the FACS buffer and the mean florescence intensities (MFI) of FITC were evaluated by FACS Caliber. […] AB6.12 is a humanized version of anti-CD47 antibody 2A1 from Celgene and was used as a reference antibody in the assay.

Experiment [12] addresses T5, human CD47 (full length) expressed on …. Put plainly: FACS ligand blocking on CD47-CHO cells; blocked ligand FITC human SIRPa huFc at 5 ug/ml. The method, then: The cells were then washed 3 times with the FACS buffer and the mean florescence intensities (MFI) of FITC were evaluated by FACS Caliber.

Positions count from the first letter of the chain named. Where “and” joins values, the source holds several entries; their conditions need not be identical. Equal entries are not always repeated.

T2 sequence (Q08722 19-139 limits assumed): as above
T5 sequence (Q08722 19-323): as the sequence (Q08722 19-323) above

B1: D125S3 (antibody, V domains shown)
VH: EVQLVESGGDLVKPGGSLNLSCAASGFTFSDYGMSWVRQTPDMRLEWVATISKYGTYTSYPDSVKGRFTISRSNAKNTLYLQMSSLKSADTALYYCARRFFGNYNYWYFDVWGAGTTVTVSS
VL: DIVLTQSPASLAVSLGQRATFSCRASESVDEFGISYIHWYKKSPGQPPKLLIYRASTLESGISARFSGSGSGTDFTLTINPVETDDVATYYCQQSNQDPLTFGAGTKLELK
notes: Mouse hybridoma form; the mouse/human chimeric form with the same V regions is m18; also called D125S3 mouse anti-human CD47 hybridoma antibody
Turning to B1, the binding result in experiment [1] is reported as “no binding (tested: 70 ug/ml)”. The IC50 in experiment [2] is 0.25 µg/mL and 1.69 nM.

B2: D8S1 (antibody, V domains shown)
VH: EVQLQQSVAELVRPGASVKLSCTVSGFNIKNTYIYWVKQRPEQGLEWIGRIDPANGNTKDAPKFQGKATMTADTSSNTAYLQLSSLTSEDTAIYYCARGYGSGFAYWGQGTLVTVSA
VL: DIQMTQTTSSLSASLGDRVTISCRASQDISNHLNWYQQKPDGIVKLLIYYTSRLHSGVPSRFSGSGSGTDYSLTISNLEQEDIATYFCQQGSTLPFTFGSGTKLEIK
notes: Mouse hybridoma form; the mouse/human chimeric form with the same V regions is m13; also called D8S1 mouse anti-human CD47 hybridoma antibody
B2: the binding result in experiment [1] was “no binding (tested: 70 ug/ml)”. Moreover, the 50% inhibitory concentration (IC50) in experiment [2] was 0.27 µg/mL and 1.77 nM.

B3: D96S1 mouse anti-human CD47 hybridoma antibody (antibody, V domains shown)
VH: EVQLQQSGAELVKPGASVKLSCTASGFNIKDTYIHWVKQRPEQGLEWIGRIDPANGNIKSDPKFQGKATVTADTSSNTAYLQLSSLTSEDTAVYYCARSYGSSFASWGQGTLVTVSP
VL: B2 VL with I43A, L94F, F96Y, S100G
notes: Mouse hybridoma IgG
As to B3, in [1], the binding result is “no binding (tested: 70 ug/ml)”. The concentration for half-maximal inhibition (IC50) in experiment [2] is 1.94 µg/mL and 12.9 nM.

B4: D41S2 (antibody, V domains shown)
VH: B2 VH with V24P, K38R
VL: B2 VL with I43T
notes: Mouse hybridoma form; the mouse/human chimeric form with the same V regions is m16; also called D41S2 mouse anti-human CD47 hybridoma antibody
On to B4, for which, in experiment [1], the binding result was “no binding (tested: 70 ug/ml)”. In [2], the IC50 is 0.16 µg/mL and 1.06 nM.

B5: AB6.12, a humanized version of anti-CD47 antibody 2A1 from Celgene (antibody, from another filing, V domains shown)
VH: QMQLVQSGAEVKKTGSSVKVSCKASGFNIKDYYLHWVRQAPGQALEWMGWIDPDQGDTEYAQKFQDRVTITRDRSMSTAYMELSSLRSEDTAMYYCNAAYGSSSYPMDYWGQGTTVTVSS
VL: NIQMTQSPSAMSASVGDRVTITCKASQDIHRYLSWFQQKPGKVPKHLIYRANRLVSGVPSRFSGSGSGTEFTLTISSLQPEDFATYYCLQYDEFPYTFGGGTKVEIKR
For the molecule B5, the Kd in experiment [3] turned out to be 0.0479 nM; in experiment [5] it was 0.0479 nM; in experiment [6] it was 0.798 nM; in experiment [7] it was 0.798 nM. The same molecule registered a concentration for half-maximal inhibition (IC50) in experiment [4] of 8.6 µg/mL. Moreover, the koff in experiment [5] turned out to be 2.25e-05 s⁻¹; in experiment [6] it was 0.000703 s⁻¹. The association rate constant (kon) worked out at 469000 M⁻¹ s⁻¹ in [5] and 881000 M⁻¹ s⁻¹ in experiment [6].

B6: D28S1 mouse anti-human CD47 hybridoma antibody (antibody, V domains shown)
VH: EVQLVESGGDLVKPGGSLKLSCAASGFTFTSYGMSWVRQTPDKRLEWVATINTGGSYTYYPDSVKGRFTISRDNAKNTLYLQMSSLKSEDTAMYYCARHTIKSLMDYWGQGTSVTVSS
VL: ETTVTQSPASLSMAIGEKVTIRCITSTDIDDDMNWYQQKPGEPPKLLISEGNTLRPGVPSRFSSSGYGTDFVFIIENMFSEDVADYYCLQSDNLPYTFGSGTKLEIK
notes: Mouse hybridoma IgG
Consider B6, for which the IC50 in experiment [8] is 1 nM; in experiment [2], 0.15 µg/mL and 1.02 nM.

B7: D36S4 mouse anti-human CD47 hybridoma antibody (antibody, V domains shown)
VH: EVKLEESGGGLVQPGGSMKLSCVASGFTFSRYWMNWVRQSPDKGLEWVAQIRLKSDNYETHYAESVKGRFTISRDDSKSSVYLQMNNLRAEDTGIYYCIEEGGYYVPFAYWGQGTLVTVSA
VL: DIVVSQSPSSLAVSAGEKVTMSCKSSQSLFKSRTRKNYLAWYQQRPGQSPKLLIYWASIRESGVPDRFTGSGSGTEFTLTISSVQAEDLAVYYCKQSYYLLTFGAGTKLELK
notes: Mouse hybridoma IgG
With B7, the “EC50 (read off the curve)” value in [9] was roughly 0.02 µg/mL. Further, the binding result in [1] was “binds”. For the same molecule, the IC50 came to 0.59 nM in experiment [8] and 0.09 µg/mL in experiment [2].

B8: D36S4 mouse/human chimeric anti-human CD47 antibody (antibody, V domains shown)
VH: B7 VH
VL: B7 VL
notes: also called chimeric D36S4 antibody; D36S4 H/L
On to B8, for which the IC50 in experiment [10] was determined as 0.07 µg/mL; in [11] it was 5.1 µg/mL; in experiment [12] it was 1.6 µg/mL. The Kd in experiment [3] stood at 0.0194 nM; in experiment [5], 0.0194 nM; in experiment [6], 0.702 nM; in experiment [7], 0.702 nM. Besides, the koff in [5] came to 1.18e-05 s⁻¹; in experiment [6] it was 0.000236 s⁻¹. Also, the figures for the kon in experiment [5] and in experiment [6] were 605000 M⁻¹ s⁻¹ and 337000 M⁻¹ s⁻¹, respectively.
